From patent US20110287948A1, “MEASUREMENT OF MATERIAL PROPERTIES AND RELATED METHODS AND COMPOSITIONS BASED ON CYTOADHERENCE” (Massachusetts Institute of Technology, priority 2010, published 2011)

Columns and labels:
[1] = test system: Acute promyelocytic leukemia cells; settings: cells induced to differentiate down the neutrophil lineage for three days; cited from earlier work
WAS−/− T cells [2] = test: Micropipette aspiration of CCL19-stimulated migratory WAS-/- T cells; assay type: cell-based, mouse (WAS−/− on Balb/c background); settings: naïve WAS−/− T cells that migrated in response to CCL19
Experimental: (§1) Micropipettes made using a micropipette puller were trimmed to 2.5-3 or 4.5-5 μm inner diameter for testing naïve and activated T cells. MPA glass chambers consisted of a 24 mm×60 mm microscope coverslip bottom, a U-shaped parafilm spacer, and a 22 mm×22 mm microscope coverslip top. The assembly was baked for two hours at 80° C. to ensure good adhesion between the components.
(§2) Enriched WT and WAS−/− T cells in DMEM with 1% BSA and 0.1% Pen/Strep were induced to migrate through polycarbonate Transwell inserts (Costar, Cambridge, Mass.) with 5-μm pores in a 24-well plate toward a CCL19 chemokine source (R&D Systems, Minneapolis, Minn.). Inserts contained 5×10^5 cells in 100 μL of medium, and wells contained 1 mL of medium with either no CCL19 or 100 ng/mL of CCL19. Cells were allowed to migrate for ˜7 hours at 37° C., and those that crossed the membrane were collected and used for MPA studies.
3×10^5 cells in 100 μL RPMI with 10% FBS and 1% HEPES was stained with 10 μL trypan blue. The mixture was added to 600 μL of either the RPMI medium or the T cell activation medium with IL-2 for naïve and activated T cell testing. Migratory T cells were tested in the medium used for migration. The MPA device was based on the design of Hochmuth et al (18). […] The cell movement in the micropipette was recorded with a CCD camera. […]

WT T cells [3] = test: FACS analysis of phenotype (CD62L/CD44) of WT T cells induced to migrate by CCL19; assay type: cell-based, mouse (Balb/c); settings: WT cells that migrated after CCL19 exposure
Experimental: FIG. 68 depicts results of a FACS analysis of phenotype of naïve WT T cells induced to migrate by the chemokine CCL19. T cells were first gated on PI to exclude dead cells. The cell samples tested were naïve T cells not exposed to CCL 19 (A, D), cells that remained in the insert after CCL19 exposure (100 ng/mL) for seven hours (B, E), and cells that migrated across the insert membrane after the same chemokine treatment (C, F).
Cells from the peripheral lymph nodes and the spleen of Balb/c mice and WAS−/− mice on Balb/c background were pooled and enriched using the EasySep Mouse CD8+ T Cell Enrichment Kit from STEMCELL Technologies (British Columbia, Canada). Enrichment was confirmed using fluorescence-activated cell sorting (FACS) by staining the cells with FITC/anti-Thy1.2 and PE/anti-CD8a antibodies (Abs). The memory T cell population was assessed by evaluating the expression of CD44 and CD62L via FACS. T cells in an activation medium with 100 units/mL IL-2 and 1% anti-CD28 Ab were activated by plate-bound anti-CD3 Abs for 4 day at 37° C. The activation medium included RPMI with 10% FBS, 10 mM HEPES (1M), 1% NEAA, 1% sodium pyruvate (100 mM), […] (3-mercaptoethanol, 4 mM L-glutamine, and 100 μg/mL Pen/Strep. Cell activation was verified via FACS measurement of CD25. […]

WAS−/− T cells [4] = test: In vitro Transwell cell migration toward CCL19, WAS-/- T cells; assay type: cell-based, mouse (WAS−/− on Balb/c background); settings: seven hours of exposure to CCL19 (100 ng/mL), 5-μm pore inserts
Experimental: Cells from the peripheral lymph nodes and the spleen of Balb/c mice and WAS−/− mice on Balb/c background were pooled and enriched using the EasySep Mouse CD8+ T Cell Enrichment Kit from STEMCELL Technologies (British Columbia, Canada). Enrichment was confirmed using fluorescence-activated cell sorting (FACS) by staining the cells with FITC/anti-Thy1.2 and PE/anti-CD8a antibodies (Abs). The memory T cell population was assessed by evaluating the expression of CD44 and CD62L via FACS. T cells in an activation medium with 100 units/mL IL-2 and 1% anti-CD28 Ab were activated by plate-bound anti-CD3 Abs for 4 day at 37° C. The activation medium included RPMI with 10% FBS, 10 mM HEPES (1M), 1% NEAA, 1% sodium pyruvate (100 mM), […] (3-mercaptoethanol, 4 mM L-glutamine, and 100 μg/mL Pen/Strep. Cell activation was verified via FACS measurement of CD25. Enriched WT and WAS−/− T cells in DMEM with 1% BSA and 0.1% Pen/Strep were induced to migrate through polycarbonate Transwell inserts (Costar, Cambridge, Mass.) with 5-μm pores in a 24-well plate toward a CCL19 chemokine source (R&D Systems, Minneapolis, Minn.). Inserts contained 5×10^5 cells in 100 μL of medium, and wells contained 1 mL of medium with either no CCL19 or 100 ng/mL of CCL19. Cells were allowed to migrate for ˜7 hours at 37° C., and those that crossed the membrane were collected and used for MPA studies.

WT T cells [5] = test: Micropipette aspiration of CCL19-stimulated migratory WT T cells; assay type: cell-based, mouse (Balb/c)
Experimental: as §1, §2
3×10^5 cells in 100 μL RPMI with 10% FBS and 1% HEPES was stained with 10 μL trypan blue. The mixture was added to 600 μL of either the RPMI medium or the T cell activation medium with IL-2 for naïve and activated T cell testing. Migratory T cells were tested in the medium used for migration. The MPA device was based on the design of Hochmuth et al (18). The aspiration rate and volume were 36 mL/hr and 2 mL, corresponding to a total pressure of ˜400 Pa. The cell movement in the micropipette was recorded with a CCD camera. Aspirations were performed at approximately room temperature.
MPA data were fitting using the half-space model (77) described by the expressions:
where E is the cell modulus, L is the length from the micropipette opening to the cell leading edge, Δp is the pressure differential at a particular L, ri and ro are the inner and outer […] of the micropipette, and φ is the wall function that is approximately […]. The ImageJ software was used to manually track the change in L. By plotting Δp against ri/L and finding the best linear fit (minimal total error) a modulus could be derived from the slope of the line. […]

CC1=C(/C=C/C(C)=C/C=C/C(C)=C/C(=O)O)C(C)(C)CCC1 [all-trans retinoic acid]
more compliant than the control (creep compliance) [1]: 45%

B1: CCL19: chemokine CCL19 (R&D Systems) used as chemoattractant for T cells (protein, UniProt Q99731 22-98, looked up)
C-C motif chemokine 19: GTNDAEDCCLSVTQKPIPGYIVRNFHYLLIKDGCRVPAVVFTTLRGRQLCAPPDQPWVERIIQRLQRTSAKMKRRSS
apparent Young's modulus (mean+/−SD) (WAS−/− T cells [2]): 152+/−102 Pa
migrating cells stained CD62L high and CD44 low (naïve phenotype) (WT T cells [3]): ~90%
cells migrated (WAS−/− T cells [4]): ~6.4%
stiffness compared to activated cells (WT T cells [5]; migratory WT cells vs activated WT T cells): about 1.4 times
modulus reduction from the value measured in the absence of CCL19 (WT T cells [5]; migratory WT cells vs untreated naïve WT cells): more than 2 times
apparent Young's modulus (mean+/−SD) (WT T cells [5]; naïve WT T cells that migrated in response to CCL19): 128+/−33 Pa
